Data published in publication PMC4632185, “Mechanistic basis of Nek7 activation through Nek9 binding and induced dimerization” (Nature Communications, 2015).

B3: Nek7 N90R (enzyme)
chain: not shown
B4: Nek7 N90A (enzyme)
chain: not shown
B5: Nek7 N90K (enzyme)
chain: not shown

Experiments:
Nek7^Y97F, full length [1] = biological target: T1, Nek7^Y97F, full length (human, UniProt Q8TDX7 1-302, Y97F); assay: crystal structure; co-crystallisation by sitting drop vapour diffusion, Nek7^Y97F at 440 μM and Nek9 peptide at 880 μM; 0.2 M potassium thiocyanate, 0.1 M bis-Tris propane pH 7.5, 20% PEG 3350; 2.78 Å, space group P3_(1) 2 1; conditions: both partners purified
T1 construct: Nek7, human, full length; residues 20-300 modelled in the structure; source: E. coli Codonplus RPIL, co-expressed with or without λ-phosphatase, purified (HisTRAP, Superdex-200)
T1 sequence (Q8TDX7 whole entry Y97F, the tested form may be a part): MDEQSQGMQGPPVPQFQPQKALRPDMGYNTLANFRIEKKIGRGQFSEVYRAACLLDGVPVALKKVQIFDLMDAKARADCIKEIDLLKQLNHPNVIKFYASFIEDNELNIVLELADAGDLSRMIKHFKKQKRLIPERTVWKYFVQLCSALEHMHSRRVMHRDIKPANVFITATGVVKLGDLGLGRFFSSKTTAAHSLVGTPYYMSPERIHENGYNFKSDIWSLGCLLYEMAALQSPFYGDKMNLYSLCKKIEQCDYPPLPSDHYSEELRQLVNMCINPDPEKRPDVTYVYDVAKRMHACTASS

[2] = biological target: T2, Nek7-His6, full-length wild type, unphosphorylated (human, UniProt Q8TDX7 1-302); assay: pull-down; GST co-precipitation: 100 μg GST-Nek9 protein immobilised on glutathione sepharose-4B beads, incubated with 100 μg Nek7 in 500 μl for 1 h at 4 °C; 50 mM HEPES pH 7.5, 300 mM NaCl, 5% glycerol, 5 mM dithiothreitol, 0.05% Tween-20; Coomassie staining or immunoblot with α-His6; conditions: both partners purified
T2 construct: Nek7 (NIMA-related kinase 7), human, full length; also called Nek7^WT; unphosphorylated Nek7^WT; source: E. coli Codonplus RPIL, co-expressed with or without λ-phosphatase, purified (HisTRAP, Superdex-200); not shown: His6, C-terminal, kept
T2 sequence (Q8TDX7 whole entry): as the sequence (Q8TDX7 whole entry Y97F, the tested form may be a part) above, with F97Y counted along it

[3] = biological target: the molecule itself; assay: cell-based or functional assay
Nek7 N90K = biological target: B5; assay: pull-down; GST co-precipitation: 100 μg GST-Nek9 protein immobilised on glutathione sepharose-4B beads, incubated with 100 μg Nek7 in 500 μl for 1 h at 4 °C; 50 mM HEPES pH 7.5, 300 mM NaCl, 5% glycerol, 5 mM dithiothreitol, 0.05% Tween-20; Coomassie staining or immunoblot with α-His6; conditions: both partners purified
Sequence of Nek7 N90K (Q8TDX7 whole entry N90K): as the sequence (Q8TDX7 whole entry Y97F, the tested form may be a part) above, with N90K, F97Y counted along it

Nek7 N90R = biological target: B3; assay: as above; conditions: both partners purified
Sequence of Nek7 N90R (Q8TDX7 whole entry N90R): as the sequence (Q8TDX7 whole entry Y97F, the tested form may be a part) above, with N90R, F97Y counted along it

Nek7 N90A = biological target: B4; assay: as above; conditions: both partners purified
Sequence of Nek7 N90A (Q8TDX7 whole entry N90A): as the sequence (Q8TDX7 whole entry Y97F, the tested form may be a part) above, with N90A, F97Y counted along it

Nek7^Y97A, full length = biological target: T3, Nek7^Y97A, full length (human, UniProt Q8TDX7 1-302, Y97A); assay: as above; conditions: both partners purified
T3 construct: Nek7, human, full length; source: E. coli Codonplus RPIL, co-expressed with or without λ-phosphatase, purified (HisTRAP, Superdex-200)
T3 sequence (Q8TDX7 whole entry Y97A): as the sequence (Q8TDX7 whole entry Y97F, the tested form may be a part) above, with F97A counted along it

Nek7 K96E = biological target: T4, Nek7 K96E (human, UniProt Q8TDX7 1-302, K96E); assay: as above; conditions: both partners purified
T4 construct: Nek7, human, full length; source: E. coli Codonplus RPIL, co-expressed with or without λ-phosphatase, purified (HisTRAP, Superdex-200)
T4 sequence (Q8TDX7 whole entry K96E): as the sequence (Q8TDX7 whole entry Y97F, the tested form may be a part) above, with K96E, F97Y counted along it

Nek7^Y97F, full length [4] = biological target: T1, Nek7^Y97F, full length; assay: as above; conditions: both partners purified
phosphorylated Nek7^WT = biological target: T5, phosphorylated Nek7^WT (human, UniProt Q8TDX7 1-302, phosphorylated (sites not stated for this preparation)); assay: as above; conditions: both partners purified
T5 construct: Nek7, human, full length; also called phospho-Nek7^WT; source: E. coli Codonplus RPIL, co-expressed with or without λ-phosphatase, purified (HisTRAP, Superdex-200)
T5 sequence (Q8TDX7 whole entry): as the sequence (Q8TDX7 whole entry Y97F, the tested form may be a part) above, with F97Y counted along it

B1: synthetic peptide corresponding to aa 810–828 of Nek9 (peptide, UniProt Q8TD19 810-828, looked up)
peptide: GWLRKELENAEFIPMPDSP
notes: source: synthetic peptide (Peptide Synthetics)
Nek7^Y97F, full length [1]
  binding result: binds

B2: GST-Nek9 810–828 (domain or fragment, human, UniProt Q8TD19 810-828, looked up)
chain: GWLRKELENAEFIPMPDSP
notes: source: E. coli, purified (glutathione sepharose)
[2]
  binding result: binds

## B3
[3]
  in vitro kinase activity of the initially unphosphorylated Nek7 mutant, in the presence or absence of Nek9-CTD, against WT (32P incorporation, scintillation counting): ≤ 10 fold

## B4
[3]
  fold decrease in in vitro kinase activity of the initially unphosphorylated Nek7 mutant, against WT (32P incorporation, scintillation counting): ~2 fold

## B5
[3]
  in vitro kinase activity of the initially unphosphorylated Nek7 mutant, in the presence or absence of Nek9-CTD, against WT (32P incorporation, scintillation counting): ≤ 10 fold

B6: GST-Nek9-CTD (aa 726–979) (domain or fragment, human, UniProt Q8TD19 726-979, looked up)
chain: KVLNSKTIRSNSSGLSIGTVFQSSSPGGGGGGGGGEEEDSQQESETPDPSGGFRGTMEADRGMEGLISPTEAMGNSNGASSSCPGWLRKELENAEFIPMPDSPSPLSAAFSESEKDTLPYEELQGLKVASEAPLEHKPQVEASSPRLNPAVTCAGKGTPLTPPACACSSLQVEVERLQGLVLKCLAEQQKLQQENLQIFTQLQKLNKKLEGGQQVGMHSKGTQTAKEEMEMDPKPDLDSDSWCLLGTDSCRPSL
notes: Nek9, human, C-terminal domain, residues 726-979; For some kinase assays the GST tag was removed with 3C protease; also called Nek9 non-catalytic C-terminal domain; N9 CTD; source: E. coli, purified (glutathione sepharose); not shown: GST, N-terminal, kept
Nek7 N90K
  binding result: binds
Nek7 N90R
  binding result: binds
Nek7 N90A
  binding result: binds
Nek7^Y97A, full length
  binding result: binds
Nek7 K96E
  binding result: binds
[2]
  binding result: binds
Nek7^Y97F, full length [4]
  binding result: binds
Phosphorylated Nek7^WT
  binding result: binds
